Results reported in PMC11094088, “Molecular mechanism of Oxr1p mediated disassembly of yeast V-ATPase” (EMBO Reports, 2024).

Columns and labels:
[1] = target: recombinant N-terminally 7×His tagged biotinylated Oxr1p (bio-Oxr1p) (yeast) (UniProt Q08952); experiment: BLI; bio-Oxr1p (10 µg/ml) immobilised on streptavidin biosensors, V1ΔH^(ΔOxr1) with or without recombinant subunit C in solution; 20 mM Tris-HCl pH 7.0, 0.5 mM EDTA, β-mercaptoethanol, 5.0 mg/ml BSA; 23 °C; global fitting
[2] = target: wild-type yeast V-ATPase reconstituted into lipid nanodiscs (V1VoND) (yeast (endogenous) | yeast) (UniProt P16140)
[3] = target: wild-type yeast V-ATPase reconstituted into lipid nanodiscs (V1VoND) (yeast (endogenous) | yeast) (UniProt P16140); remark: listed apart in the source
[4] = target: T1, V1 subunit B (the B subunit of the open catalytic site), in the purified V-ATPase (yeast (endogenous), UniProt P16140 1-517); experiment: cryo-EM structure; V-ATPase in lipid nanodiscs (~1-2 mg/ml) vitrified with a twofold molar excess of Oxr1p, no nucleotide; 3-D classes at ~8.2 Å; Oxr1p density in the rotary state 1 class (~31% of particles); settings: both partners purified
T1 construct: V1 subunit B, yeast; source: endogenous, part of the purified yeast V-ATPase in lipid nanodiscs

[5] = target: V1ΔH^(ΔOxr1) in the presence of recombinant subunit C (yeast (endogenous) | yeast) (UniProt P16140); experiment: BLI; α-mouse IgG Fc capture biosensors loaded with α-MBP antibody, then MBP-HWT or MBP-H_(chim) (5 µg/ml); 40 nM V1ΔH in solution with buffer, Oxr1p (equimolar), subunit C (twofold molar excess) or Oxr1p + subunit C; TBSE plus 0.5 mg/ml BSA; 23 °C

T1 sequence (P16140 whole entry): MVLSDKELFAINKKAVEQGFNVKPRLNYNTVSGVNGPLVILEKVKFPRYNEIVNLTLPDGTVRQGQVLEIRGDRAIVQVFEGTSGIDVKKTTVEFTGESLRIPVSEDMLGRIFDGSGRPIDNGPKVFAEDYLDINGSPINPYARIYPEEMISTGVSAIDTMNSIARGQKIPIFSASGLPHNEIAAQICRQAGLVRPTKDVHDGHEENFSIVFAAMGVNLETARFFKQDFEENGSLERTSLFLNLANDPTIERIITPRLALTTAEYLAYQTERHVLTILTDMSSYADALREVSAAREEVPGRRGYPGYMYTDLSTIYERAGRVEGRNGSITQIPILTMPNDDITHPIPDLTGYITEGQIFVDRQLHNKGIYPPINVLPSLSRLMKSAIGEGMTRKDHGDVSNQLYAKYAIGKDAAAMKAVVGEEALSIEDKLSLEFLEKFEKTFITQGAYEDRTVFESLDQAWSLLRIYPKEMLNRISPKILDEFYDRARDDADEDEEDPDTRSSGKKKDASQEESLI

How did the Kd [1] turn out when “V1ΔH, V1 subcomplex without subunit H (FLAG-tagged subunit G), from the oxr1Δvma13Δ background (from UniProt P16140 1-517; P32610 1-256; P22203 1-233; P39111 1-118; P48836 1-114)” was run?
The Kd was 67 nM.

With “V1ΔH^(ΔOxr1) in the presence of recombinant subunit C (from UniProt P16140 1-517; P32610 1-256; P22203 1-233; P39111 1-118; P48836 1-114; P31412 1-392) (complex)” as the molecule, how does the Kd [1] read?
Its Kd is 7 nM.

B1: Oxidation Resistance protein 1 (Oxr1p), recombinant (natural protein, yeast, UniProt Q08952 1-273, looked up)
chain: MFGVKDAIFKIKRSIAGTDSSDSTAYTTASESSPQLKDSHNPFRNKTTSERTIVEEGSLPPVRLNGYLPSTKNKLLTPEMCDEIRTLMPTRIQLYTEWNLLYSLEQHGSSLHSLYSNVAPDSKEFRRVGYVLVIKDRKNGIFGAYSNEAFHPNEHRQYTGNGECFLWKLDKVPDVNISEKEESEQEGKEGKEEGDKEERWRFSGYPYTGVNEFAIYCTSEFLSMGAGDGHYGLLCDDGLLHGVSNPCQTYGNEVLSKEGKKFSIVALEVWRVG
notes: Oxr1p, yeast TLDc domain protein; construct as described in Khan et al, 2022; also called recombinant Oxr1p; source: E. coli BL21DE3, purified (Ni-NTA, Superdex-75 SEC); not shown: 7xHis, N-terminal, kept
What does the source list for B1?
ATPase activity of purified V-ATPase in nanodiscs left after incubation with a twofold molar excess of Oxr1p, 30 min to 16 h, relative to the starting activity [2]: 70%; loss of ATPase activity of purified V-ATPase after 30 min with a twofold molar excess of Oxr1p alone [3]: 30%; binding result [4]: binds; percent reduction of V1ΔH binding to immobilised H (chim) (subunit C and Oxr1p, against Oxr1p only) [5]: 25%; percent reduction of V1ΔH binding to immobilised wild-type H (subunit C and Oxr1p, against Oxr1p only) [5]: 60%
